According to patent US20190002515A1 (published 2019):

Target: T1, GAGE-1 peptide on HLA-DRA*01:01 / HLA-DRB5*01:01 (human)
T1 peptide: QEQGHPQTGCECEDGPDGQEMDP
Test: cytokine release

B1: TCR specific for GAGE-1 of SEQ ID NOs 7 and 8 (TCR, V domains shown)
Valpha: EDKVVQSPLSLVVHEGDTVTLNCSYEVTNFRSLLWYKQEKKAPTFLFMLTSSGIEKKSGRLSSILDKKELSSILNITATQTGDSAIYLCAERTQGGSEKLVFGKGTKLTVNP
Vbeta: DAGITQSPRHKVTETGTPVTLRCHQTENHRYMYWYRQDPGHGLRLIHYSYGVKDTDKGEVSDGYSVSRSKTEDFLLTLESATSSQTSVYFCATQRNTEAFFGQGTRLTVV
  binding result: recognises
